Measured values reported in patent US20220144922A1 (Adimab, published 2022).
Where a chain is given by its changes, count along the chain named.

B1: ADI-15649 (antibody, V domains shown)
VH: EVQLVESGGGLVKPGGSLRLSCAAPGFTIRSYTMYWVRQAPGKGLEWVASISSSSSYIHYGDSVKGRFTIARDNAKNSLYLQMNSLRAEDTAVYYCVRDHCTGGSCYLNGMDVWGQGTTVTVSS
VL: QPVLTQPPSVSGAPGQRVTISCTGTSSNIGAGYDVHWYQQLPGTAPKLLIYGNNNRPSGVPDRFSGSKSGTSASLAITGLQAEDEADYYCQSYDSSLSGSVFGGGTKLTVL
notes: IgG
B2: ADI-15591 (antibody, V domains shown)
VH: EVQLLESGGGLVKPGGSLRLSCAASGFTFSSYGMHWVRQAPGKGLEWVSSITAGSSYMDYADSVKGRFTVSRDNGKNSLYLQMNSLRAEDTAVYFCAREDYDSRVYYLKWFDPWGQGTLVTVSS
VL: B1 VL with P2S, T25S, A31T, T44S, N54S, L97R, S100Y, G104T
notes: IgG
B3: ADI-15568 (antibody, V domains shown)
VH: QVQLVESGAEVQKPGASVKISCKASGYKFISYSIHWVRQAPGQGLEWMGVINPGGGLTNYAQKFQDRLTMTRDTSTATVTMELRSLRSDDRAVYFCGREDSYCSGDSCFNSGSGRWVDSWGQGTLVTVSS
VL: DIQVTQSPSSLSASVGDRVTITCRASQSVITYLNWYQQKPGKAPQLLVYAASILQSGVPSSFSGSGSGTDFTLTISSLQPEDFATYYCQQTYSTPHTFGQGTKVDIK
notes: IgG
B4: ADI-15571 (antibody, V domains shown)
VH: QVQLVQSGAEVKKPGASVKVSCKASGYSFTDYYIHWVRQAPGQGLEWIGWINPNSGGTTFAQNFQGRVTMTRDTSISTAFLELSRLKSDDTAVYYCARDVLWLNGFWGLGTLVTVSS
VL: QSVVTQPPSVSAAPGQKVTISCSGSSSNIGNNYVSWYQQFRGTAPKVLIYENNKRTSGIPDRFSGSKSGTSATLGITGLQTGDEADYYCGTWDSSLSTGPYVVFGGGTKLTVL
notes: IgG
B5: ADI-15642 (antibody, V domains shown)
VH: EVQLVESGGGLIQPGGSLRLSCAASGFTVSSKYMSWVRQAPGKGLEWVSIIYSGGSTYHADSVKGRFTISRDNSKNTLYLQMNSLRAEDTAVYYCARDDYDFWSGNGPPEMAVWGQGTTVTVSS
VL: DIRMTQSPSSLSASVGDRVTITCRASQGISNYLAWYQQKPGKVPKLLIYAASTLQSGVPSRFSGSGSETDFTLTISSLQPEDVATYYCQKYNSVPLTFGQGTKVEIK
notes: IgG; also called Antibody Number 206
B6: ADI-15650 (antibody, V domains shown)
VH: B5 VH with H59Y
VL: B5 VL with I2M, M4L, K39R, K45Q, A50T, N92D
notes: IgG; also called Antibody Number 214
B7: ADI-15563 (antibody, V domains shown)
VH: EVQLVESGGGLVQPGRSLRLSCAASGFTFDDYAMHWVRQAPGKGLEWVSGISWNSGIVKYADSVKGRFTISRDNAKNSLYLQMNSLRTEDTALYYCVKDGYTSSWHSDYHYGLDVWGQGTTVTVSS
VL: DIVMTQSPATLSLSPGDRATLSCRASQNVISNLAWYQQKPGQAPRLLIYTVSTRATGIPARFSGSGSGTDFTLTISSLQSEDFAVYYCQQYNNWPLTFGGGTKVEIK
notes: IgG
B8: ADI-15566 (antibody, V domains shown)
VH: QVQLVQSGAEVKKPGASVKVSCKASGFTFTNYGISWVRQAPGRGLEWMGWISAYNGNTEYAQKLQDRLTMTTDTSTNTAYMELRSLRSDDTALYYCARESGVAAAATLLYWGQGTLVTVSS
VL: ETTLTQSPLSLPVTLGQPASISCRSSQSLVYSDGNTYLSWFQQRPGQSPRRLIYKVSNRDSGVPDRFSGSGSGADFTLKISRVEAEDVGVYYCMQGIYWPRTFGQGTKVDIK
notes: IgG
B9: ADI-15564 (antibody, V domains shown)
VH: QVQLVQSGAEVKKPGSSVKVSCKASGDTFNSYSISWVRQAPGQGLEWMGGILPMFGSSDYAQKFQGRLTITADESTRTAYMELNSLTSEDTAIYYCARDNYYVWTGRYPEFDFWGQGTLVTVSS
VL: EIVLTQSPGTLSLSPGDEATLSCRASQSVTSNYLAWYQQRPGQAPRLLISGASRRATAVPDRFSGSGSGTDFTLTISRLEPEDFAVYYCQQYGSTPITFGQGTRLEIK
notes: IgG
B10: ADI-15656 (antibody, V domains shown)
VH: QVQLVQSGAEVKKPGASVKVSCKASGYTFTDYYMHWVRQAPGQGLEWVGWINPNSGSTNYAQKFQGRVTVTRDTSISTAYMDLSRLRSDDTAVYYCASRSWDHDAFDIWGQGTMVTVSS
VL: QSVLTQPPSVSGAPGQRVTISCTGSSSNIGAGYDVHWYQQLPGRAPKLLIFGNSNRPSGVPDRFSGSKSGTSASLAITGLQPEDEADYYCHCYDSRLSVVFGGGTKLTVL
notes: IgG; also called Antibody Number 220
B11: ADI-15594 (antibody, V domains shown)
VH: EVQLVESGGHLVQPGGSLRLSCAASGFTFSSYSMNWVRQAPGKGLEWISYISSSSSTMYYADSVKGRFTMSRDNAKNSLYLQMNSLRDEDTALYYCARDFPPINLAATTRNYYYYVMDVWGQGTTVTVSS
VL: DIQLTQSPSSLSASVGDRVTITCRASQSISSYLNWYQQKPGKAPNLLIYATSNLKSGVPSRFSGSGSGTDFTLTISSLQPEDFATYYCQQSYSTSYTFGQGTKVDIK
notes: IgG
B12: ADI-15583 (antibody, V domains shown)
VH: QVQLVQSGAEVKKPGESLKISCKTSGYKFTNYWIGWVRQMPGKGLEWMGIIYPGDSDARYSPSFQGQVTFSADKSISTAYLQWSSLKASDTAMYYCARQDNSGWADFFPFDYWGQGTLVTVSS
VL: ETTLTQSPGTLSLSPGERATLSCRASHSFSSSYLAWYQQKPGQAPRLLIYAASNRATGIPDRFSGSGSGTDFTLTISRLEPEDFAVYFCQQYDSSPWTFGQGTKVEIK
notes: IgG
B13: ADI-15643 (antibody, V domains shown)
VH: B12 VH with K28R, Q82H, N101D
VL: B12 VL with T2I, T3V, S32T, V105L
notes: IgG
B14: ADI-15655 (antibody, V domains shown)
VH: EVQLVESGGGVVQPGRSLRLSCAASGFTFSSYAMHWVRQAPGKGLEWVAVISYDEGNEYYADSVKGRFTISRANSKNTIYLQMNSLRAEDTAVYYCARDYIHGDYGLDVWGLGTTVTVSS
VL: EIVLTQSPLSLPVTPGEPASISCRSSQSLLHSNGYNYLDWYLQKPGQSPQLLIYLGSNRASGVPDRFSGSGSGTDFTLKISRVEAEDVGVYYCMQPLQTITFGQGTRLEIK
notes: IgG
B15: ADI-15592 (antibody, V domains shown)
VH: EVQLVESGGALVKPGGSLRLSCVGTGLTFTTAYMSWARQAPGKGLEWVGRIKSKSDGGTTEYPTPVKGRFTISRDESKNTLYLQMNSLKIEDTAVYYCTTDRGITARPIFDSWGQGTLVTVSS
VL: QSVLTQPPSVSGALGRRVTISCTGSSSNIGAGYDVHWYRQLPGTAPKLLIYGNTKRPSGVPDRFSGSKYATSASLAITGLQAEDDADYYCQSYDGGLSGYVFGTGTQLTVL
notes: IgG; also called Antibody Number 159
B16: ADI-15569 (antibody, V domains shown)
VH: EVQLVESGAEVKKPGASVKVSCKASGYTFANYGITWVRQAPGQGLEYMGWISAYNGNTNYAQKFQGRVTMTTDTSTSTAYMELRSLRSDDTAIYYCARDPGVTAAVLLDYWGQGALVTVSS
VL: DIVLTQSPLSLPVTLGQPASISCRSSQSLVFSDGNTYLSWFQQRPGQSPRRLLYKVSNRDSGVPDRFSGSGSGTDFTLTISRVEAEDVGVYYCLQGTPPYTFGQGTKVDIK
notes: IgG
B17: ADI-15586 (antibody, V domains shown)
VH: EVQLVESGGGVVQPGKSLRLSCAASGFIFSGYGMHWVRQAPGKGLEWVAFIWFDGSSTYYADSVKGRFTISKDDSKQTVYLQMNRLRAEDTAVYYCARDPLFLYNYNDEPFDYWGQGTLVTVSS
VL: SYELTQPPSASGSPGQSVTISCSGSSSNIGGNFVYWYQQLPGTAPKVLIYRNNQRPSGVPDRFSGSKSGTSASLAISGLRSDDEADYYCSVWDDSLNGRLFGGGTKLTVL
notes: IgG; also called Antibody Number 153
B18: ADI-15565 (antibody, V domains shown)
VH: QVQLVQSGAEVKKPGASVKVSCKASGYTFTNDINWVRQATGQGLEWMGWMNPNNGHTGYAQSFEGRVSMTRNSAINTAYLELSSLRFDDTAIYYCVYNFWSDSSVSWGQGTLVTVSS
VL: QSVVTQPPSVSGAPGQSVAISCTGSSSNIGPGYDVHWYQQLPGAAPKLLIYGDSNRPSGVPDRFSTSKSGTSVSLAITGLQAEDEADYYCQSYDSSLRGYVFGTGTKLTVL
notes: IgG
B19: ADI-15575 (antibody, V domains shown)
VH: QVQLVQSGAEVKKPGASLMVSCSASGYIFNSDINWVRQAPGQGLEWMGWMNPKNGHTGYAQEFEGRVSMTRNSSKTIAYLQLSSLTYEDTAVYYCVYDFWSDDSVKWGRGTLVTVSS
VL: B18 VL with T23S, A44S, S54N, D62E, V73A, Y93F, L108V
notes: IgG
B20: ADI-15587 (antibody, V domains shown)
VH: EVQLVESGGGVVRPGGSLRLSCAASGFKFDDYGMSWVRQAPGKGLEWVSAIIWNSGSTGYADSVKGRFIISRDNAKNSLYLQMNSLRAEDTALYYCARVGGITKWWYYGMDLWGQGTTVTVSS
VL: ETTLTQSPSFLSASVGDRVTITCRASQGLSNYLAWYQQKPGRAPKLLIYAASTLQSGVPSRFRGSGSGTEFTLTISSLQPEDLATYYCQHLNSYPLTFGGGTKVEIK
notes: IgG

target: RSV F protein of subtype A strain A2, on virus (respiratory syncytial virus subtype A …, UniProt P03420 26-574); test: cell-based or functional assay

| Binder | Neut IC50 (ug/ml) subtype A |
| --- | --- |
| B1 | > 10 µg/mL |
| B2 | 0.086 µg/mL |
| B3 | 0.016 µg/mL |
| B4 | 0.541 µg/mL |
| B5 | 0.499 µg/mL |
| B6 | 8.3 µg/mL |
| B7 | 0.014 µg/mL |
| B8 | 0.01 µg/mL |
| B9 | 0.011 µg/mL |
| B10 | > 10 µg/mL |
| B11 | 3.25 µg/mL |
| B12 | 0.443 µg/mL |
| B13 | 0.039 µg/mL |
| B14 | > 10 µg/mL |
| B15 | 12.3 µg/mL |
| B16 | 0.006 µg/mL |
| B17 | > 10 µg/mL |
| B18 | 21.3 µg/mL |
| B19 | > 10 µg/mL |
| B20 | > 10 µg/mL |

target: RSV F protein of subtype B strain 18537, on virus (respiratory syncytial virus subtype B …, UniProt P13843 26-574); test: cell-based or functional assay

| Binder | Neut IC50 (ug/ml) subtype B |
| --- | --- |
| B1 | 2.19 µg/mL |
| B2 | 0.219 µg/mL |
| B3 | 0.033 µg/mL |
| B4 | 0.43 µg/mL |
| B5 | 0.005 µg/mL |
| B6 | 0.016 µg/mL |
| B7 | 0.047 µg/mL |
| B8 | 0.043 µg/mL |
| B9 | 0.016 µg/mL |
| B10 | 0.021 µg/mL |
| B11 | 3.28 µg/mL |
| B12 | 0.377 µg/mL |
| B13 | 0.115 µg/mL |
| B14 | > 10 µg/mL |
| B15 | 20.9 µg/mL |
| B16 | 0.035 µg/mL |
| B17 | 1.02 µg/mL |
| B18 | 6.25 µg/mL |
| B19 | 1.47 µg/mL |
| B20 | 0.13 µg/mL |

target: T1, prefusion-stabilized RSV F ectodomain (DS-Cav1), subtype B (respiratory syncytial virus subtype B); test: BLI, IgG on sensor
T1 construct: extracellular domain; also called Prefusion subtype B
Protocol: IgG binding to DS-Cav1 and FA FP was determined by BLI measurements using a FortéBio Octet HTX instrument (Pall Life Sciences). […] Data was analyzed using the ForteBio Data Analysis Software 7. The data was fit to a 1:1 binding model to calculate an association and dissociation rate, and KD was calculated using the ratio kd/kₐ.

| Binder | Kd |
| --- | --- |
| B1 | 0.329 nM |
| B2 | 0.304 nM |
| B3 | 0.699 nM |
| B4 | 25.7 nM |
| B5 | 2.81 nM |
| B6 | 3.52 nM |
| B7 | 2.2 nM |
| B8 | 0.264 nM |
| B9 | 0.64 nM |
| B10 | 6.13 nM |
| B11 | 0.549 nM |
| B12 | 0.351 nM |
| B13 | 0.162 nM |
| B14 | 8.58 nM |
| B15 | 48.2 nM |
| B16 | 0.25 nM |
| B17 | 5.78 nM |
| B18 | 6.76 nM |
| B19 | 4.16 nM |
| B20 | 2.42 nM |
